One data set deals with T1, α-AaGlyRS (Aquifex aeolicus, UniProt O67081).
T1 construct: gene glyQ; alpha subunit alone of alpha2beta2 GlyRS; synthetic codon-optimised gene in pET-28, N-terminal His6 (His tag/TEV residues kept), E. coli BL21(DE3)
The data set is described as follows: thermal shift assay, SYPRO Orange. The following applies: 8 mM GSAd; reference Tm without ligand 83.2 °C; 25 mM NaH2PO4, 25 mM KCl, 10 mM MgCl2. The format is binding.

Substrate in the data set “purified protein”: NCC(=O)O
The data set is described as follows: purified protein. The format is biochemical, Aquifex aeolicus. The following applies: 0.5 mM ATP, 10 mM MgCl2, 50 mM Tris pH 8.0, 50 mM KCl, 45 °C, 40 μM enzyme, alpha subunit alone.

Data set [1] concerns the molecule itself. Briefly: SEC-MALS; Superdex S-75 10/300 analytical column, 0.5 ml/min, DAWN Heleos-II and Optilab RI detectors; protein loaded after concentration to 15 mg/ml; one peak with 99.9% of the injected mass.

Consider `NCC(=O)NS(=O)(=O)OC[C@H]1O[C@@H](n2cnc3c(N)ncnc32)[C@H](O)[C@@H]1O` [GSAd, 5′-O-[N-(L-glycyl)sulfamoyl] adenosine], for which the “Tm with 8 mM ligand” value at α-AaGlyRS is 92.3 °C.

B1: α-subunit of the α2β2 glycyl tRNA synthetase (GlyRS) from Aquifex aeolicus (enzyme)
chain: MYFQDIIMTLHKFWAEKGCLIWQPYDVEVGAGTMNPATFLKVLGKKPWNVAYVEPSRRPQDGRYGENPNRLQHYYQFQVILKPAPRNPQEIYLESLERLGINPLEHDIRFVEDDWESPTLGAWGLGWEVWLDGMEITQFTYFQQAGGLDLDEISVEITYGLERIAMYIQDKDSVFDIEWKEGITYGEIFKRSEWEWSKYNFELADTDMLFQVYEMFEKESKRMVEEGLIFPAYDYLLKCSHVFNILDARGAISVQERARYIRRMNNLAREIAKLYLQVFENVGAT
notes: Glycyl tRNA synthetase α-subunit, Aquifex aeolicus; synthetic cDNA (Genscript), codon-optimised for E. coli, in pET-28; No cleavage of the tag is described; The theoretical mass of the dimer is printed as 67.4 kDa; Crystals were soaked with the glycyl adenylate analog GSAd; also called α-AaGlyRS; α-subunit GlyRS; source: E. coli BL21(DE3), purified (heat treatment 75 °C, Ni2+-Sepharose, size …)
The term Km denotes the concentration of substrate that gives half-maximal velocity. A word on the kcat: it is the maximal rate divided by the concentration of active sites. Usually stoichiometry N stands for the number of molecules, sites or subunits per partner or assembly. Consider B1, for which, in “purified protein”, the Michaelis constant (Km) was 110 ± 16 µM and the kcat was found to be 0.00023 s⁻¹. The “stoichiometry N” value in data set [1] was found to be 2.

The record behind these values is paper PMC4938167, “Structural Insights into the Polyphyletic Origins of Glycyl tRNA Synthetases*^([image sbox.jpg])^♦” (The Journal of Biological Chemistry, 2016).
